The results in this text go back to ChEMBL document CHEMBL2074313, “Polyspecific substrate uptake by the hepatic organic anion transporter Oatp1 in stably transfected CHO cells” (Am J Physiol, 1999).

Type in all cases: functional, cell-based
Data set [1] addresses T1, Oatp1 (Solute carrier organic anion transporter family member 1A1) (Rattus norvegicus, UniProt P46720).
T1 sequence (P46720 whole entry): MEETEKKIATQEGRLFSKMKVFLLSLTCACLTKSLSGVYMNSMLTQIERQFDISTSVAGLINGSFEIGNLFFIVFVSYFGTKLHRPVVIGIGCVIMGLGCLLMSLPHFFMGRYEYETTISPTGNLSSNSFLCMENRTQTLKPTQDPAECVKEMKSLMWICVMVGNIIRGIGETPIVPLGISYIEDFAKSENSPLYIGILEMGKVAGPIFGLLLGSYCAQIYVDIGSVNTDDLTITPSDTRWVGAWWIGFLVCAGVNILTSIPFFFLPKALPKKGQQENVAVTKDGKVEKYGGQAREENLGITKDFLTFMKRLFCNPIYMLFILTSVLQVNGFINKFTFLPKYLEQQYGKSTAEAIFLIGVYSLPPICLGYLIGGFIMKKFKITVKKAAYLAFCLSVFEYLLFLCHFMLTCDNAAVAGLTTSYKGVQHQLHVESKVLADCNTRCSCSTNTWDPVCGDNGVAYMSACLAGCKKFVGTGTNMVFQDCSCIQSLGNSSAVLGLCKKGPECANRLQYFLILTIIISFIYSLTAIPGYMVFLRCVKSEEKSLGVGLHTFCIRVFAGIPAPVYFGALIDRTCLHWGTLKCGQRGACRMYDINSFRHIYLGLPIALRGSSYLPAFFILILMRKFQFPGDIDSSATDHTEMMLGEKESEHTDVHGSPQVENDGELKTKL
The data set can be described thus: (§1) TP_TRANSPORTER: uptake in Oatp1-expressing CHO-03 cell. To be noted: hamster, CHO-03 cells expressing Oatp1.

Substrate in data set [2]: COc1cc(C)c(S(=O)(=O)N[C@@H](CC(=O)O)C(=O)N[C@H](Cc2ccc(C(=N)N)cc2)C(=O)N2CCCCC2)c(C)c1C
Described as §1.

Substrate in data set [3]: [H][C@@]12CC=C3C[C@@H](OS(=O)(=O)O)CC[C@]3(C)[C@@]1([H])CC[C@]1(C)C(=O)CC[C@@]21[H]
Described as §1.

Substrate in data set [4]: O=C1OC(c2ccc(O)c(S(=O)(=O)O)c2)(c2ccc(O)c(S(=O)(=O)O)c2)c2c(Br)c(Br)c(Br)c(Br)c21
The description is as §1.

Substrate in data set [5]: C[C@]12CC[C@@H]3c4ccc(O)cc4CC[C@H]3[C@@H]1CC[C@@H]2O[C@@H]1O[C@H](C(=O)O)[C@@H](O)[C@H](O)[C@H]1O
The description is as §1.

Substrate in data set [6]: C[C@H](CCC(=O)NCCS(=O)(=O)O)[C@H]1CC[C@H]2[C@@H]3[C@@H](O)C[C@@H]4C[C@H](O)CC[C@]4(C)[C@H]3CC[C@]12C
The data set is described as §1.

Substrate in data set [7]: C[C@H](CCC(=O)NCCS(=O)(=O)O)[C@H]1CC[C@H]2[C@@H]3[C@H](O)C[C@@H]4C[C@H](O)CC[C@]4(C)[C@H]3CC[C@]12C
Described as §1.

Substrate in data set [8]: C[C@]12CC[C@@H]3c4ccc(OS(=O)(=O)O)cc4CC[C@H]3[C@@H]1CCC2=O
The description is as §1.

`C[C@@H]1Cc2c(Cl)cc(C(=O)N[C@@H](Cc3ccccc3)C(=O)O)c(O)c2C(=O)O1` [3R14S-OCHRATOXIN A]: in data set [1], the Km (as a rule, the substrate concentration at which the rate is half of its maximum) stood at 29 µM.

For the molecule `C[C@@H]1O[C@@H](O[C@H]2C[C@@H](O)[C@]3(CO)[C@H]4[C@H](O)C[C@]5(C)[C@@H](C6=CC(=O)OC6)CC[C@]5(O)[C@@H]4CC[C@]3(O)C2)[C@H](O)[C@H](O)[C@H]1O` [OUABAIN], the Km in data set [1] worked out at 3000 µM.

B1: Solute carrier organic anion transporter family member 1A1 (Rattus norvegicus) (protein)
chain: T1 sequence (P46720 whole entry)
Consider B1, for which the Km was found to be 57 µM in data set [2]; 5 µM in data set [3]; 3 µM in data set [4]; 4 µM in data set [5]; 13 µM in data set [6]; 7 µM in data set [7]. Moreover, the Km in data set [8] was 11 µM.
